# In patent publication US20250368729A1:
# Numbering of substitutions follows the chain as printed.
# B1: humanized antibody VH6/VL3 (antibody, V domains shown)
# VH: QVQLQESGPGLVKPSETLSLTCTVSGFSLSSYGVSWVRQPPGKGLEWLGVIWGDGSTNYHPNLMSRLSISKDTSKNQFSLKLSSVTAADTATYYCVTLDYWGQGTSVTVSS
# VL: DVVMTQSPLSLPVTLGQPASISCRSSQSLVHRNGNTYLHWYLQRPGQSPRLLIYKVSNRFSGVPDRFSGSGSGTDFTLKISRVEAEDVGLYFCFQTTYVPNTFGGGTKLEIK
# B2: humanized antibody VH8/VL4 (antibody, V domains shown)
# VH: B1 VH with V37I, L48I, L67V, S68T, N76S, T92V
# VL: B1 VL with Y41F, L42Q, L90V
# B3: humanized antibody VH7/VL4 (antibody, V domains shown)
# VH: B1 VH with V37I, L48I, L67V, S68T, F78V, S79L, T92V
# VL: B1 VL with Y41F, L42Q, L90V
# B4: humanized antibody VH10/VL4 (antibody, V domains shown)
# VH: B1 VH with V37I, N76S, F78V, S79L, T92V
# VL: B1 VL with Y41F, L42Q, L90V
# Tests used:
# [1] = target: synthetic amyloid-like fibrils of recombinant amyloidogenic λ6 variable domain protein (rVλ6Wil); assay: EuLISA, fibrils coated on plate (FIG. 13A)
# [2] = target: synthetic amyloid-like fibrils of recombinant amyloidogenic λ6 variable domain protein (rVλ6Wil); assay: EuLISA, fibrils coated on plate (FIG. 13B)
Binder,EC50 [1] [nM],EC50 [2] [nM]
B1,95,95
B2,16,
B3,75,
B4,17,
